Test results: patent US20230227548A1 (published 2023)
Substitutions are numbered along the chain they refer to. In names and notes the source's numbering stands. Blank lines part the entries; values can stand above or below the binder they belong to.

What was measured:
human GPRC5D [1] = target: T1, human GPRC5D (human, UniProt Q9NZD1 1-345); assay: FACS, human GPRC5D cells
T1 construct: on transfected HEK293 or RBL cells, or endogenous on MM1R, H929, OPM2, LP-1, JIM3 and patient plasma cells; also called G-protein coupled receptor family C group 5 member D; hGPRC5D
T1 sequence (Q9NZD1 whole entry): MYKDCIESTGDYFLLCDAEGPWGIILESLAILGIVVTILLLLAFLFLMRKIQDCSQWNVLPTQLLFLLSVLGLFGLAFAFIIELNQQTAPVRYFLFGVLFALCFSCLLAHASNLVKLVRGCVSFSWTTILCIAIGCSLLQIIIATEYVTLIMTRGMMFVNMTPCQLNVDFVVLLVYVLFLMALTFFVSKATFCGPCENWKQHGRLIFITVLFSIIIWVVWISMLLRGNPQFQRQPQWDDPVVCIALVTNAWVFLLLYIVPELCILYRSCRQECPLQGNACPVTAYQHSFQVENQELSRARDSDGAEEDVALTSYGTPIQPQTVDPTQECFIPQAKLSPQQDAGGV

human GPRC5D [2] = target: T1, human GPRC5D; assay: cell-based or functional assay

binding result (human GPRC5D [1]): binds
B1: GC5B471 (antibody, V domains shown)
VH: EVQLVQSGAEVKKPGESLKISCKGSGYSFTSYYIGWVRQMPGKGLEWMGIIYPGASDTRYSPSFQGQVTISADKSISTAYLQWSSLKASDTAMYYCARVYSFGGRHKALFDYWGQGTLVTVSS
VL: EIVLTQSPATLSLSPGERATLSCRASQSVSSYLAWYQQKPGQAPRLLIYDASNRATGIPARFSGSGSGTDFTLTISSLEPEDFAVYYCQQRSNWPLTFGQGTKVEIK
notes: GC5B164 PTM variant, Hc GC5H278

binding result (human GPRC5D [1]): binds
B2: GC5B475 (antibody, V domains shown)
VH: B1 VH with Y33A
VL: B1 VL
notes: GC5B164 PTM variant, Hc GC5H274

binding result (human GPRC5D [1]): binds
B3: GC5B498 (antibody, V domains shown)
VH: B1 VH with Y33F, A55D
VL: B1 VL
notes: GC5B164 PTM variant, Hc GC5H251

binding result (human GPRC5D [1]): binds
B4: GC5B497 (antibody, V domains shown)
VH: B1 VH with Y33V, A55D
VL: B1 VL
notes: GC5B164 PTM variant, Hc GC5H252

binding result (human GPRC5D [1]): binds
B5: GC5B494 (antibody, V domains shown)
VH: B1 VH with Y33G, A55Y
VL: B1 VL
notes: GC5B164 PTM variant, Hc GC5H255

binding result (human GPRC5D [1]): binds
B6: GC5B492 (antibody, V domains shown)
VH: B1 VH with Y33V, A55Y
VL: B1 VL
notes: GC5B164 PTM variant, Hc GC5H257

binding result (human GPRC5D [1]): binds
B7: GC5B477 (antibody, V domains shown)
VH: B1 VH with Y33V, A55S
VL: B1 VL
notes: GC5B164 PTM variant, Hc GC5H272

binding result (human GPRC5D [1]): binds
B8: GC5B480 (antibody, V domains shown)
VH: B1 VH with Y33A, A55S
VL: B1 VL
notes: GC5B164 PTM variant, Hc GC5H269

binding result (human GPRC5D [1]): binds
B9: GC5B481 (antibody, V domains shown)
VH: B1 VH with A55K
VL: B1 VL
notes: GC5B164 PTM variant, Hc GC5H268

binding result (human GPRC5D [1]): binds
B10: GC5B483 (antibody, IgG4, V domains shown)
VH: B1 VH with Y33F, A55K
VL: B1 VL
notes: GC5B164 variant D55K, W33F; IgG4 S228P, L234A, L235A; also called GC5H266

binding result (human GPRC5D [1]): binds
B11: GC5B505 (antibody, V domains shown)
VH: B1 VH with Y33W, A55Y
VL: B1 VL
notes: GC5B164 PTM variant, Hc GC5H244

binding result (human GPRC5D [1]): binds
B12: GC5B473 (antibody, V domains shown)
VH: B1 VH with Y33F
VL: B1 VL
notes: GC5B164 PTM variant, Hc GC5H276

binding result (human GPRC5D [1]): binds
B13: GC5B478 (antibody, V domains shown)
VH: B1 VH with Y33F, A55S
VL: B1 VL
notes: GC5B164 PTM variant, Hc GC5H271

binding result (human GPRC5D [1]): binds
B14: GC5B493 (antibody, V domains shown)
VH: B1 VH with Y33F, A55Y
VL: B1 VL
notes: GC5B164 PTM variant, Hc GC5H256

binding result (human GPRC5D [1]): binds
B15: GC5B482 (antibody, V domains shown)
VH: B1 VH with Y33V, A55K
VL: B1 VL
notes: GC5B164 PTM variant, Hc GC5H267

binding result (human GPRC5D [1]): binds
B16: GC5B487 (antibody, V domains shown)
VH: B1 VH with Y33V, A55E
VL: B1 VL
notes: GC5B164 PTM variant, Hc GC5H262

binding result (human GPRC5D [1]): binds
B17: GC5B504 (antibody, V domains shown)
VH: B1 VH with Y33W, A55E
VL: B1 VL
notes: GC5B164 PTM variant, Hc GC5H245

binding result (human GPRC5D [1]): binds
B18: GC5B474 (antibody, V domains shown)
VH: B1 VH with Y33G
VL: B1 VL
notes: GC5B164 PTM variant, Hc GC5H275

binding result (human GPRC5D [1]): binds
B19: GC5B479 (antibody, V domains shown)
VH: B1 VH with Y33G, A55S
VL: B1 VL
notes: GC5B164 PTM variant, Hc GC5H270

binding result (human GPRC5D [1]): binds
B20: GC5B484 (antibody, V domains shown)
VH: B1 VH with Y33G, A55K
VL: B1 VL
notes: GC5B164 PTM variant, Hc GC5H265

binding result (human GPRC5D [1]): binds
B21: GC5B488 (antibody, V domains shown)
VH: B1 VH with Y33F, A55E
VL: B1 VL
notes: GC5B164 PTM variant, Hc GC5H261

binding result (human GPRC5D [1]): binds
B22: GC5B485 (antibody, V domains shown)
VH: B1 VH with Y33A, A55K
VL: B1 VL
notes: GC5B164 PTM variant, Hc GC5H264

binding result (human GPRC5D [1]): binds
B23: GC5B476 (antibody, V domains shown)
VH: B1 VH with A55S
VL: B1 VL
notes: GC5B164 PTM variant, Hc GC5H273

binding result (human GPRC5D [1]): binds
B24: GC5B503 (antibody, V domains shown)
VH: B1 VH with Y33W, A55K
VL: B1 VL
notes: GC5B164 PTM variant, Hc GC5H246

binding result (human GPRC5D [1]): binds
B25: GC5B502 (antibody, V domains shown)
VH: B1 VH with Y33W, A55S
VL: B1 VL
notes: GC5B164 PTM variant, Hc GC5H247

binding result (human GPRC5D [1]): binds
B26: GC5B486 (antibody, V domains shown)
VH: B1 VH with A55E
VL: B1 VL
notes: GC5B164 PTM variant, Hc GC5H263

binding result (human GPRC5D [1]): binds
B27: GC5B490 (antibody, V domains shown)
VH: B1 VH with Y33A, A55E
VL: B1 VL
notes: GC5B164 PTM variant, Hc GC5H259

binding result (human GPRC5D [1]): binds
B28: GC5B472 (antibody, V domains shown)
VH: B1 VH with Y33V
VL: B1 VL
notes: GC5B164 PTM variant, Hc GC5H277

binding result (human GPRC5D [1]): binds
B29: GC5B496 (antibody, V domains shown)
VH: B1 VH with A55D
VL: B1 VL
notes: GC5B164 PTM variant, Hc GC5H253

binding result (human GPRC5D [1]): binds
B30: GC5B491 (antibody, V domains shown)
VH: B1 VH with A55Y
VL: B1 VL
notes: GC5B164 PTM variant, Hc GC5H258

binding result (human GPRC5D [1]): binds
B31: GC5B495 (antibody, V domains shown)
VH: B1 VH with Y33A, A55Y
VL: B1 VL
notes: GC5B164 PTM variant, Hc GC5H254

binding result (human GPRC5D [1]): binds
B32: GC5B501 (antibody, V domains shown)
VH: B1 VH with Y33W
VL: B1 VL
notes: GC5B164 PTM variant, Hc GC5H248

B33: GCDB40 (bispecific antibody, V domains shown)
VH 1: EVQLVESGGGLVQPGGSLRLSCAASGFTFNTYAMNWVRQAPGKGLEWVARIRSKYNNYATYYAASVKGRFTISRDDSKNSLYLQMNSLKTEDTAVYYCARHGNFGNSYVSWFAYWGQGTLVTVSS
VL 1: QTVVTQEPSLTVSPGGTVTLTCRSSTGAVTTSNYANWVQQKPGQAPRGLIGGTNKRAPGTPARFSGSLLGGKAALTLSGVQPEDEAEYYCALWYSNLWVFGGGTKLTVL
VH 2: EVQLLESGGGLVQPGGSLRLSCAASGFTFSDYGMHWVRQAPGKGLEWVSAIKYSGGSTYYADSVKGRFTISRDNSKNTLYLQMNSLRAEDTAVYYCAKRAESGPGLDYWGQGTLVTVSS
VL 2: not shown
T-cell mediated cytotoxicity EC50, H929 (n = 5) (human GPRC5D [2]): 1.2 nM
T-cell mediated cytotoxicity EC50, MM1R (n = 3) (human GPRC5D [2]): 0.52 nM

B34: GCDB35 (bispecific antibody, V domains shown)
VH 1: B33 VH 1
VL 1: B33 VL 1
VH 2: B1 VH with Y33W, A55D
VL 2: B1 VL
T-cell mediated cytotoxicity EC50, H929 (n = 5) (human GPRC5D [2]): 1.39 nM
T-cell mediated cytotoxicity EC50, MM1R (n = 3) (human GPRC5D [2]): 0.74 nM

B35: GCDB41 (bispecific antibody, V domains shown)
VH 1: B33 VH 1
VL 1: B33 VL 1
VH 2: QVQLVQSGAEVKKPGSSVKVSCKASGGTFSSYGISWVRQAPGQGLEWMGGIIPIFGNINYAQKFQGRVTITADESTSTAYMELSSLRSEDTAVYYCARVSRRFKRFAYYFDYWGQGTLVTVSS
VL 2: not shown
T-cell mediated cytotoxicity EC50, MM1R (n = 3) (human GPRC5D [2]): 2.58 nM

B36: GCDB43 (bispecific antibody, V domains shown)
VH 1: B33 VH 1
VL 1: B33 VL 1
VH 2: not shown
VL 2: not shown
T-cell mediated cytotoxicity EC50, H929 (n = 5) (human GPRC5D [2]): 0.36 nM
T-cell mediated cytotoxicity EC50, MM1R (n = 3) (human GPRC5D [2]): 0.21 nM

B37: GCDB44 (bispecific antibody, V domains shown)
VH 1: B33 VH 1
VL 1: B33 VL 1
VH 2: not shown
VL 2: B1 VL
T-cell mediated cytotoxicity EC50, H929 (n = 5) (human GPRC5D [2]): 10.3 nM
T-cell mediated cytotoxicity EC50, MM1R (n = 3) (human GPRC5D [2]): 4.41 nM
